# Laboratory results as given in the Immune Epitope Database (IEDB).
# pKd: −log10 of the molar value.
# Experiments:
# HLA-B*51:01 = test: IEDB peptide-MHC binding, purified MHC/direct/fluorescence; filed as Kd, often an IC50 or EC50 that approximates it; ≥ and ≤ were set here for values at or beyond the usual limits of such assays
# HLA-B*27:03 = test: as above
# HLA-A*69:01 = test: as above
# HLA-A*02:16 = test: as above
# HLA-B*57:01 = test: as above
# HLA-A*26:01 = test: as above
# HLA-B*15:01 = test: as above
# HLA-A*24:03 = test: as above
# HLA-A*02:12 = test: as above
# HLA-A*02:19 = test: as above
# HLA-A*03:01 = test: as above
# HLA-A*68:02 = test: as above
# HLA-A*29:02 = test: as above
# HLA-A*02:01 = test: as above
# HLA-A*02:03 [1] = test: as above
# HLA-B*15:17 = test: as above
# HLA-B*46:01 = test: as above
# HLA-A*02:11 = test: as above
# HLA-B*18:01 = test: as above
# HLA-A*30:01 = test: IEDB peptide-MHC binding, purified MHC/competitive/fluorescence; filed as Kd, often an IC50 or EC50 that approximates it; ≥ and ≤ were set here for values at or beyond the usual limits of such assays
# HLA-A*02:03 [2] = test: as above; conditions: source organism: Human immunodeficiency virus 1
# HLA-C*03:03 = test: IEDB peptide-MHC binding, purified MHC/direct/fluorescence; filed as Kd, often an IC50 or EC50 that approximates it; ≥ and ≤ were set here for values at or beyond the usual limits of such assays
# HLA-B*08:01 = test: as above; conditions: source organism: Orthomarburgvirus marburgense
# HLA-A*31:01 = test: as above; conditions: source organism: Lake Victoria marburgvirus - Popp
# HLA-B*27:05 = test: as above; conditions: source organism: Lake Victoria marburgvirus - Popp
# HLA-B*58:01 = test: as above; conditions: source organism: Lake Victoria marburgvirus - Popp
# HLA-A*01:01 = test: as above; conditions: source organism: Lake Victoria marburgvirus - Popp
# HLA-B*15:09 = test: as above; conditions: source organism: Orthomarburgvirus marburgense
# HLA-B*40:01 = test: as above; conditions: source organism: Lake Victoria marburgvirus - Popp
# HLA-B*07:02 = test: as above; conditions: source organism: Lake Victoria marburgvirus - Popp
# HLA-A*11:01 = test: as above; conditions: source organism: Lake Victoria marburgvirus - Popp
# HLA-B*48:01 = test: IEDB peptide-MHC binding, purified MHC/competitive/fluorescence; filed as Kd, often an IC50 or EC50 that approximates it; ≥ and ≤ were set here for values at or beyond the usual limits of such assays
# HLA-B*39:01 = test: IEDB peptide-MHC binding, purified MHC/direct/fluorescence; filed as Kd, often an IC50 or EC50 that approximates it; ≥ and ≤ were set here for values at or beyond the usual limits of such assays; conditions: source organism: Entamoeba histolytica HM-1:IMSS
# HLA-A*23:01 = test: as above; conditions: source organism: Influenza A virus (A/Memphis/1/1986(H3N2))
# [3] = source organism: Listeria monocytogenes serotype 4b str. H7858
# [4] = source organism: Francisella tularensis subsp. holarctica LVS
# [5] = source organism: Francisella tularensis subsp. tularensis FSC033
# [6] = source organism: Lake Victoria marburgvirus - Popp
# [7] = source organism: Orthomarburgvirus marburgense
# [8] = source organism: Entamoeba histolytica HM-1:IMSS
# [9] = source organism: Influenza A virus (A/Memphis/1/1986(H3N2))
sequence,measurement,setting,value
ERYPGGVSL,pKd,HLA-B*51:01; [3],≤ 4.70
same,pKd,HLA-B*27:03; [3],≤ 4.70
same,pKd,HLA-A*69:01; [3],≤ 4.70
same,pKd,HLA-A*02:16; [3],≤ 4.70
same,pKd,HLA-B*57:01; [3],≤ 4.70
same,pKd,HLA-A*26:01; [3],≤ 4.70
same,pKd,HLA-B*15:01; [3],≤ 4.70
same,pKd,HLA-A*24:03; [3],≤ 4.70
same,pKd,HLA-A*02:12; [3],≤ 4.70
same,pKd,HLA-A*02:19; [3],≤ 4.70
same,pKd,HLA-A*03:01; [3],≤ 4.70
same,pKd,HLA-A*68:02; [3],≤ 4.70
same,pKd,HLA-A*29:02; [3],≤ 4.70
same,pKd,HLA-A*02:01; [3],≤ 4.70
same,pKd,HLA-A*02:03 [1]; [3],≤ 4.70
same,pKd,HLA-B*15:17; [3],≤ 4.70
same,pKd,HLA-B*46:01; [3],≤ 4.70
same,pKd,HLA-A*02:11; [3],≤ 4.70
same,pKd,HLA-B*18:01; [3],≤ 4.70
FPDGKPFTL,pKd,HLA-B*51:01; [3],≤ 4.70
same,pKd,HLA-B*27:03; [3],≤ 4.70
same,pKd,HLA-A*02:16; [3],≤ 4.70
same,pKd,HLA-B*57:01; [3],≤ 4.70
same,pKd,HLA-A*26:01; [3],≤ 4.70
same,pKd,HLA-B*15:01; [3],≤ 4.70
same,pKd,HLA-A*02:12; [3],≤ 4.70
same,pKd,HLA-A*02:19; [3],≤ 4.70
same,pKd,HLA-A*03:01; [3],≤ 4.70
same,pKd,HLA-A*29:02; [3],≤ 4.70
same,pKd,HLA-A*02:01; [3],≤ 4.70
same,pKd,HLA-A*02:03 [1]; [3],≤ 4.70
same,pKd,HLA-B*15:17; [3],≤ 4.70
same,pKd,HLA-B*46:01; [3],≤ 4.70
same,pKd,HLA-A*02:11; [3],≤ 4.70
same,pKd,HLA-B*18:01; [3],≤ 4.70
RSLYNTIAVLY,pKd,HLA-A*30:01; source organism: Human immunodeficiency virus 1,5.72
same,pKd,HLA-A*02:03 [2],6.17
FLYDISISL,pKd,HLA-A*69:01; [4],7.80
same,pKd,HLA-A*02:12; [5],8.52
same,pKd,HLA-A*02:19; [5],8.15
same,pKd,HLA-C*03:03; source organism: Francisella tularensis subsp. tularensis FSC198,≥ 9.00
same,pKd,HLA-A*02:01; [4],8.96
same,pKd,HLA-A*02:11; [5],≥ 9.00
GELRKAICL,pKd,HLA-B*08:01,≤ 4.70
same,pKd,HLA-A*69:01; [6],≤ 4.70
same,pKd,HLA-B*57:01; [6],≤ 4.70
same,pKd,HLA-A*31:01,≤ 4.70
same,pKd,HLA-A*26:01; [7],≤ 4.70
same,pKd,HLA-B*27:05,≤ 4.70
same,pKd,HLA-B*58:01,≤ 4.70
same,pKd,HLA-A*01:01,≤ 4.70
same,pKd,HLA-A*68:02; [6],≤ 4.70
same,pKd,HLA-B*15:09,≤ 4.70
same,pKd,HLA-B*40:01,7.13
same,pKd,HLA-B*07:02,≤ 4.70
same,pKd,HLA-A*02:01; [6],≤ 4.70
same,pKd,HLA-A*11:01,≤ 4.70
same,pKd,HLA-B*15:17; [6],≤ 4.70
same,pKd,HLA-B*18:01; [6],5.05
same,pKd,HLA-A*30:01; [7],≤ 4.70
same,pKd,HLA-B*48:01; [7],≤ 4.70
FIILSTGKY,pKd,HLA-B*27:03; [8],≤ 4.70
same,pKd,HLA-A*02:16; [8],≤ 4.70
same,pKd,HLA-B*57:01; [8],≤ 4.70
same,pKd,HLA-A*02:12; [8],≤ 4.70
same,pKd,HLA-A*02:19; [8],≤ 4.70
same,pKd,HLA-A*03:01; [8],≤ 4.70
same,pKd,HLA-A*02:01; [8],≤ 4.70
same,pKd,HLA-B*15:17; [8],7.14
same,pKd,HLA-A*02:11; [8],≤ 4.70
same,pKd,HLA-B*18:01; [8],≤ 4.70
same,pKd,HLA-B*39:01,≤ 4.70
FQLYPPQIL,pKd,HLA-C*03:03; [8],7.48
same,pKd,HLA-B*48:01; [8],7.11
NHDGIQAGV,pKd,HLA-B*51:01; [9],≤ 4.70
same,pKd,HLA-B*27:03; [9],≤ 4.70
same,pKd,HLA-A*69:01; [9],≤ 4.70
same,pKd,HLA-A*02:16; [9],≤ 4.70
same,pKd,HLA-B*57:01; [9],≤ 4.70
same,pKd,HLA-A*26:01; [9],≤ 4.70
same,pKd,HLA-B*15:01; [9],≤ 4.70
same,pKd,HLA-A*24:03; [9],≤ 4.70
same,pKd,HLA-A*23:01,≤ 4.70
same,pKd,HLA-A*02:12; [9],≤ 4.70
same,pKd,HLA-A*02:19; [9],≤ 4.70
same,pKd,HLA-A*03:01; [9],≤ 4.70
same,pKd,HLA-A*68:02; [9],≤ 4.70
same,pKd,HLA-A*29:02; [9],≤ 4.70
same,pKd,HLA-A*02:01; [9],≤ 4.70
same,pKd,HLA-A*02:03 [1]; [9],≤ 4.70
same,pKd,HLA-B*15:17; [9],≤ 4.70
same,pKd,HLA-B*46:01; [9],≤ 4.70
same,pKd,HLA-A*02:11; [9],≤ 4.70
same,pKd,HLA-B*18:01; [9],≤ 4.70
LQAMHGFPL,pKd,HLA-B*48:01; source organism: Escherichia coli O157:H7 str. EDL933,7.01
